These results are taken from patent US20130183315A1 (GLENMARK PHARMACEUTICALS S A, published 2013).

The Kd is the equilibrium constant for the complex coming apart. The koff is the first-order rate constant of dissociation. One may read the kon as the rate constant with which the complex forms.

The target in experiment [1] is T1, recombinant human OX40-his protein (human, UniProt P43489 29-214).
T1 construct: Secretion driven by the native signal peptide of human TNFRSF4; also called recombinant histidine tagged human OX40 receptor extracellular domain; recombinant monovalent human OX40 receptor extracellular domain
T1 sequence: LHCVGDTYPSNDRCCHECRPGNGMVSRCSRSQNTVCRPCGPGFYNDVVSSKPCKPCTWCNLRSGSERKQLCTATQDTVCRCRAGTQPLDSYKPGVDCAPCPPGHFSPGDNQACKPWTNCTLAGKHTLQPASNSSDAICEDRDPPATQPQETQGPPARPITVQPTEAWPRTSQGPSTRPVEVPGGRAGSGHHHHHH
Briefly: SPR, antibody captured on protein A, OX40-his as analyte. On the procedure:
(§1) Kinetic binding affinity constants (KD) were measured on protein-A captured antibody using recombinant histidine tagged human OX40 receptor extracellular domain as described in Example 1 as analyte. Measurements were conducted on a BIAcore 2000 (GE Healthcare—BIAcore, Uppsala, Sweden) at room temperature, and analyzed with the BiaEvaluation software (BIAcore; v4.1).
(§2) A CMS research grade sensor chip (GE Healthcare Europe GmbH, Glattbrugg, Switzerland; BR-1000-14) was activated by injecting 35 μl of a 1:1 N-hydroxysulfosuccinimide (NHS)/1-Ethyl-3-[3-dimethylaminopropyl]carbodiimide Hydrochloride (EDC) solution (v/v; 5 μl/min flow-rate; on flow paths 1 and 2). Protein-A (ref. P7837; Sigma-Aldrich Chemie GmbH, Buchs, Switzerland) was diluted to a final concentration of 50 μg/ml in acetate buffer pH 4.5 (GE, BR-1003-50; one pH unit below pI) and subsequently immobilized on the previously activated CMS sensor chip by injecting 35 μl on both flow path 1 and 2 (5 μl/min); this corresponded to approximately 1500 response units (RUs). The protein-A-CMS sensor chip was then deactivated by injecting 35 μl of ethanolamine solution (5 μl/min). Finally, two injections of 10 μl of glycine solution (GE, ref BR-1003-54; 10 mM; pH 1.5) were performed to release non-crosslinked protein-A molecules.
(§3) 10 μl of this diluted stock were subsequently injected on the flow-path 2 of the protein-A CMS chip (30 μl/min) to reach 200-250 RUs. Following this capture step, the recombinant histidine tagged human OX40 receptor extracellular domain was injected at different concentrations (50 nM to 0.4 μM) on the flow-path 1 and 2 (flow-path 1 being used as reference) at a 30 μl/min flow rate. After each binding event, surface was regenerated with glycine buffer pH 1.5 injected for 1 min (10 μl/min)
On the technique in general: In SPR one partner is held on a chip, and binding of the other changes the refractive index at the surface.

In experiment [2] the target is T1, recombinant human OX40-his protein. Put plainly: SPR, antibody captured on protein A, OX40-his as analyte, duplicates; lower of the two duplicate measurements. Here is the method:
as §1, §3
Measurements were performed in duplicates with the captured chimeric 1D4 anti-human OX40 antibody immobilized onto the protein-A sensor chip and the recombinant histidine tagged human OX40 receptor extracellular domain as analyte.

In experiment [3] the target is T2, recombinant human OX40-Fc protein (human, UniProt P43489 29-214).
T2 construct: also called human TNFRSF4 extracellular domain-Fc fusion protein; HHHH; not shown: Fc region of a human IgG1, EU positions 223-451 as printed
Briefly: blocking ELISA on coated human OX40-Fc; blocked ligand: biotinylated recombinant human OX40L, streptavidin-HRP detection. On the procedure:
In order to determine if the generated anti-OX40 antibodies can block the binding of OX40L to the OX40 receptor, a blocking ELISA was developed. Ninety-six well-microtiter plates (Costar, USA; distributor VWR AG, Nyon, Switzerland) were coated with 100 μl of recombinant human OX40-Fc (see Example 1) at 2 μg/ml in PBS. Plates were incubated overnight at 4° C. and were then blocked with PBS 2% BSA at RT for one hour. The blocking solution was removed and the hybridoma supernatants or purified antibodies were added to the plate. Five minutes later, 50 μl of biotinylated-recombinant human OX40L at 0.04 mg/ml was added to each well. Plates were incubated at RT for 60 minutes, then washed nine times with PBS 0.01% Tween-20 and HRP-streptavidin (Sigma-Aldrich Chemie GmbH, Buchs, Switzerland) was added at a dilution of 1:2000. Plates were incubated for 30 minutes at RT, washed 9 times with PBS 0.01% Tween-20 and the TMB substrate (Bio-rad Laboratories AG, Reinach, Switzerland) was added to the plates and the reaction stopped after 6 minutes by adding H₂SO₄. Absorbance was then read at 450 nm by a microplate reader (Biotek, USA; distributor: WITTEC AG, Littau, Switzerland).

Experiment [4] deals with T1, recombinant human OX40-his protein. Briefly: SPR (BIAcore): antibody captured on protein A chip, human OX40-his as analyte; traces aligned at 0 s, falling phase only. Here is the method: as §1
as §2, with “molecules. […]” for “molecules.”

The target in experiment [5] is T3, human OX40 expressed on the surface of human activated lymphocytes (human, UniProt P43489 29-277).
T3 sequence: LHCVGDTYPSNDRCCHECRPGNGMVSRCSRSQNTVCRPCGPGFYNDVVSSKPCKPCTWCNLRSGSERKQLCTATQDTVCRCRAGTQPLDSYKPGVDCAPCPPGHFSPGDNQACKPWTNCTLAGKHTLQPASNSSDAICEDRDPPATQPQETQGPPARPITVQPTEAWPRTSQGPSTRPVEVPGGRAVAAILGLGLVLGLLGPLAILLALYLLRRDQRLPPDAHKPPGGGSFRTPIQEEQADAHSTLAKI
Briefly: cell-based or functional assay.

In experiment [6] the target is T4, rat OX40 extracellular region Fc fusion protein (rat; human, UniProt P15725 20-210).
T4 construct: also called RRRR; rat OX40 protein
Briefly: ELISA on coated OX40 Fc fusion (2 µg/mL), anti-human F(ab')2-HRP detection. On the procedure:
(§4) Rat and human-rat OX40 proteins were formatted as Fc fusions proteins according to the method described in Example 1. For the ELISA, OX40 proteins were coated at 2 μg/mL, in PBS, overnight at 4° C. on high binding 96-well plates (Coastar). The plates were blocked with PBS 2% Bovine Serum Albumin (BSA) before incubation with the VH6/VL9 antibody or isotype control antibody. The plates were then washed and incubated with goat-anti human Ig F(ab′)2 fragment specific-HRP (Jackson ImmunoResearch Europe Ltd, Newmarket, UK). After washing, the plates were incubated with TMB substrate (Bio-Rad Laboratories AG, Reinach, Switzerland) to reveal antibody binding. The reaction was stopped by adding 2M H₂SO₄ and the optical density was read at 450 nm (OD 450 nm) on a Synergy HT2 spectrophotometer (Biotek, USA; distributor: WITTEC AG, Littau, Switzerland).
(§5) A binding ELISA was performed to test the reactivity of the VH6/VL9 antibody on human OX40 extracellular region (abbreviated HHHH with SEQ ID NO: 11), rat OX40 extracellular region (abbreviated RRRR with SEQ ID NO: 52), and on four human-rat chimeric proteins: RHRR (SEQ ID NO: 53), HRRR (SEQ ID NO: 54), HHRR (SEQ ID NO: 55), and RRHH (SEQ ID NO: 56).
For orientation: ELISA stands for enzyme-linked immunosorbent assay.

Experiment [7] deals with T5, chimeric RRHH OX40 protein (Fc fusion) (human-rat chimera; human).
T5 chain (part 1 of 2): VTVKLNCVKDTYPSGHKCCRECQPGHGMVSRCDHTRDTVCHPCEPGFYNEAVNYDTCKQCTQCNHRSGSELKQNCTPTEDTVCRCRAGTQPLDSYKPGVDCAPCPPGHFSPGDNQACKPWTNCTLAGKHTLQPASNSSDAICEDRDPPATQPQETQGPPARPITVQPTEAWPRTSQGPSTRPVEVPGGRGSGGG
T5 chain (part 2 of 2): SAHHHHHH
Described as above. Here is the method: as §4, §5

Experiment [8] addresses T1, recombinant human OX40-his protein. Briefly: SPR (BIAcore): antibody captured on protein A chip, human OX40-his as analyte; analyte concentration not given. On the procedure:
as §1, §2, §3

B1: chimeric 1D4 antibody (antibody, human IgG1, kappa, V domains shown)
VH: QVTLKESGPGILQPSQTLSLTCSFSGFSLSTSGMGVGWIRQPSGKGLEWLAHIWWDDDKYYNTALKSGLTISKDTSKNQVFLKIASVDTTDTATYYCARIDWDGFAYWGQGTLVTVSS
VL: QIVLTQSPAILSASPGEKVTMTCRASSSVSYMHWYQQKPGSSPKPWIYATSNLASGVPARFSGSGSGTSYSLTINRVEAEDAATYYCQQWSSNPWTFGGGTKLEIKR
notes: Biotinylated for the staining of cynomolgus cells; also called 1D4 chimera; 1D4 chimeric antibody
In the case of B1, in experiment [1], the equilibrium dissociation constant (Kd) worked out at 91 nM, the koff is 0.00308 s⁻¹ and the kon was found to be 34000 M⁻¹ s⁻¹. Further, in experiment [2], the Kd was 91 to 116 nM. For the same molecule, the “IC50 (read off the curve)” value in experiment [3] was approximately 0.3 µg/mL.

B2: VH4/VL9 (antibody, human IgG1, kappa, V domains shown)
VH: QVTLKESGPALVKPTQTLTLTCSFSGFSLSTSGMGVSWIRQPPGKALEWIAHIWWDDDKYYSTSLKTRLTISKDTSKNQVVLTMTNMDPVDTATYYCARIDWDGFAYWGQGTLVTVSS
VL: EIVLTQSPATLSLSPGERATLSCRASSSVSYMHWYQQKPGQAPRPWIYATSNRATGIPARFSGSGSGTDYTLTISSLEPEDFAVYYCQQWSSNPWTFGQGTKVEIKR
notes: Humanized, IGHG1, kappa
Take B2: in experiment [4], the binding result is “binds”.

B3: VH5/VL9 (antibody, human IgG1, kappa, V domains shown)
VH: QVTLKESGPALVKPTQTLTLTCSFSGFSLSTSGMGVSWIRQPPGKALEWIAHIWWDDDKYYNTALKTRLTISKDTSKNQVVLTMTNMDPVDTATYYCARIDWDGFAYWGQGTLVTVSS
VL: EIVLTQSPATLSLSPGERATLSCRASSSVSYMHWYQQKPGQAPRPWIYATSNRATGIPARFSGSGSGTDYTLTISSLEPEDFAVYYCQQWSSNPWTFGQGTKVEIKR
notes: Humanized, IGHG1, kappa
With B3, in experiment [4], the binding result is “binds”.

B4: VH6/VL9 antibody (antibody, human IgG1, kappa, V domains shown)
VH: QVTLKESGPALVKPTQTLTLTCSFSGFSLSTSGMGVGWIRQPPGKALEWIAHIWWDDDKYYNTALKTRLTISKDTSKNQVVLTMTNMDPVDTATYYCARIDWDGFAYWGQGTLVTVSS
VL: EIVLTQSPATLSLSPGERATLSCRASSSVSYMHWYQQKPGQAPRPWIYATSNRATGIPARFSGSGSGTDYTLTISSLEPEDFAVYYCQQWSSNPWTFGQGTKVEIKR
notes: Humanized, IGHG1, kappa; also called humanized anti-OX40 antibody VH6/VL9; VH6/VL9 IGHG1 format
Regarding B4, the “inhibition of mixed lymphocyte reaction (3H thymidine incorporation), EC50” value in experiment [5] is approximately 0.1 µg/mL. Further, in experiment [1], the Kd was found to be 101 nM, the koff was 0.00356 s⁻¹ and the kon came out at 35400 M⁻¹ s⁻¹. Moreover, the binding result in experiment [6] is listed as “no binding (tested: not printed)”. Also, in experiment [7], the binding result is reported as “no binding (tested: not printed)”.

B5: VH5/VL5 (antibody, human IgG1, kappa)
heavy: not shown
light: EIVLTQSPATLSLSPGERATLSCRASSSVSYYMAWYQQKPGQAPRPWIYATSNRATGIPARFSGSGSGTDYTLTISSLEPEDFAVYYCQQWSSNPWTFGQGTKVEIKRTVAAPSVFIFPPSDEQLKSGTASVVCLLNNFYPREAKVQWKVDNALQSGNSQESVTEQDSKDSTYSLSSTLTLSKADYEKHKVYACEVTHQGLSSPVTKSFNRGEC
notes: Humanized, IGHG1, kappa
As to B5, the binding result in experiment [8] is “binds”.

B6: VH5/VL6 (antibody, human IgG1, kappa)
heavy: not shown
light: QIVLTQSPATLSLSPGERATLSCRASSSVSYYMAWYQQKPGQAPRPWIYATSNRATGIPARFSGSGSGTDYTLTISSLEPEDFAVYYCQQWSSNPWTFGQGTKVEIKRTVAAPSVFIFPPSDEQLKSGTASVVCLLNNFYPREAKVQWKVDNALQSGNSQESVTEQDSKDSTYSLSSTLTLSKADYEKHKVYACEVTHQGLSSPVTKSFNRGEC
notes: Humanized, IGHG1, kappa
For B6, in experiment [8], the binding result was “binds”.
